In WO1997032021A1:

Assays:
[1] = biological target: HLA-A3 molecule on the T2-A3 cell line; test: T2-A3 MHC stabilisation, w6/32 indirect immunofluorescence, flow cytometry; peptide at 100 uM
[2] = biological target: HLA-A3 molecule on the T2-A3 cell line; test: T2-A3 MHC stabilisation, w6/32 indirect immunofluorescence, flow cytometry; peptide at 10 uM
[3] = biological target: HLA-A3 molecule on the T2-A3 cell line; test: T2-A3 MHC stabilisation, w6/32 indirect immunofluorescence, flow cytometry; peptide at 1 uM

Expression of MHC (FR), fluorescence ratio [1]	Expression of MHC (FR), fluorescence ratio [2]	Expression of MHC (FR), fluorescence ratio [3]	Binder
1.3	1.3	1.8	DFWSGYLEY [HLA-A3 (5-13) peptide, based on CDR-H3 positions 5-13 of 105AD7]
1.8	1.8	1.2	VLYYDFWSGY [HLA-A3 (1-10) peptide, based on CDR-H3 positions 1-10 of 105AD7]
